From ChEMBL document CHEMBL4321793, “Can Cysteine Protease Cross-Class Inhibitors Achieve Selectivity?” (J Med Chem, 2019)

How the values were obtained:
[1] = compound: N=C(N)NCCC[C@H](NC(=O)OCc1ccccc1)C(=O)N[C@@H](CCCNC(=N)N)C(=O)Nc1ccc2ccc(=O)oc2c1; assay: (§1) Inhibition of Trypanosoma cruzi cruzipain assessed as ratio of Kcat/Km using Z-Phe-Arg-MCA as substrate by spectrofluorometric method
[2] = compound: N=C(N)NCCC[C@H](NC(=O)[C@H](Cc1ccc(NC(=N)N)cc1)NC(=O)OCc1ccccc1)C(=O)Nc1ccc2ccc(=O)oc2c1; assay: as §1
[3] = compound: N=C(N)NCCC[C@H](NC(=O)[C@H](Cc1ccccc1)NC(=O)OCc1ccccc1)C(=O)Nc1ccc2ccc(=O)oc2c1; assay: as §1
[4] = compound: N=C(N)NCCC[C@H](NC(=O)[C@H](Cc1ccncc1)NC(=O)OCc1ccccc1)C(=O)Nc1ccc2ccc(=O)oc2c1; assay: as §1
[5] = substrate: N=C(N)NCCC[C@H](NC(=O)OCc1ccccc1)C(=O)N[C@@H](CCCNC(=N)N)C(=O)Nc1ccc2ccc(=O)oc2c1; assay: (§2) Inhibition of human cathepsin L assessed as ratio of Kcat/Km using Z-Phe-Arg-MCA as substrate by spectrofluorometric method
[6] = substrate: N=C(N)NCCC[C@H](NC(=O)[C@H](Cc1ccc(NC(=N)N)cc1)NC(=O)OCc1ccccc1)C(=O)Nc1ccc2ccc(=O)oc2c1; assay: as §2
[7] = substrate: N=C(N)NCCC[C@H](NC(=O)[C@H](Cc1ccccc1)NC(=O)OCc1ccccc1)C(=O)Nc1ccc2ccc(=O)oc2c1; assay: as §2
[8] = substrate: N=C(N)NCCC[C@H](NC(=O)[C@H](Cc1ccncc1)NC(=O)OCc1ccccc1)C(=O)Nc1ccc2ccc(=O)oc2c1; assay: as §2

| Protein | kcat/Km [1] [M⁻¹ s⁻¹] | kcat/Km [2] [M⁻¹ s⁻¹] | kcat/Km [3] [M⁻¹ s⁻¹] | kcat/Km [4] [M⁻¹ s⁻¹] | kcat/Km [5] [M⁻¹ s⁻¹] | kcat/Km [6] [M⁻¹ s⁻¹] | kcat/Km [7] [M⁻¹ s⁻¹] | kcat/Km [8] [M⁻¹ s⁻¹] |
| --- | --- | --- | --- | --- | --- | --- | --- | --- |
| Cruzipain (Trypanosoma cruzi), P25779 (protein) MSGWARALLLAAVLVVMACLVPAATASLHAEETLTSQFAEFKQKHGRVYESAAEEAFRLSVFRENLFLARLHAAANPHATFGVTPFSDLTREEFRSRYHNGAAHFAAAQERARVPVKVEVVGAPAAVDWRARGAVTAVKDQGQCGSCWAFSAIGNVECQWFLAGHPLTNLSEQMLVSCDKTDSGCSGGLMNNAFEWIVQENNGAVYTEDSYPYASGEGISPPCTTSGHTVGATITGHVELPQDEAQIAAWLAVNGPVAVAVDASSWMTYTGGVMTSCVSEQLDHGVLLVGYNDSAAVPYWIIKNSWTTQWGEEGYIRIAKGSNQCLVKEEASSAVVGGPGPTPEPTTTTTTSAPGPSPSYFVQMSCTDAACIVGCENVTLPTGQCLLTTSGVSAIVTCGAETLTEEVFLTSTHCSGPSVRSSVPLNKCNRLLRGSVEFFCGSSSSGRLADVDRQRRHQPYHSRHRRL | 395000 | 1.1e+06 | 9.67e+06 | 6.95e+06 |  |  |  |  |
| Procathepsin L (Homo sapiens) (protein) MNPTLILAAFCLGIASATLTFDHSLEAQWTKWKAMHNRLYGMNEEGWRRAVWEKNMKMIELHNQEYREGKHSFTMAMNAFGDMTSEEFRQVMNGFQNRKPRKGKVFQEPLFYEAPRSVDWREKGYVTPVKNQGQCGSCWAFSATGALEGQMFRKTGRLISLSEQNLVDCSGPQGNEGCNGGLMDYAFQYVQDNGGLDSEESYPYEATEESCKYNPKYSVANDTGFVDIPKQEKALMKAVATVGPISVAIDAGHESFLFYKEGIYFEPDCSSEDMDHGVLVVGYGFESTESDNNKYWLVKNSWGEEWGMGGYVKMAKDRRNHCGIASAASYPTV |  |  |  |  | 37000 | 438000 | 9.46e+06 | 818000 |
